Consider 6 sequences from the supplement of paper PMC5998384.

For data set [1], the system named is HeLa Kyoto. Kind of data set: thermal stability score vs G1/S (z-score of summed log2 fold changes over temperatures); higher = more thermally stable than in G1/S.
Data set [2] has as its system HeLa Kyoto. Kind of data set: solubility change mitosis vs G1/S (difference of NP-40 vs SDS log2 ratios) (log2 ratio difference); higher = more soluble in mitosis.
For data set [3], the system named is HeLa Kyoto. Description: solubility in G1/S (NP-40 vs SDS abundance) (log2 ratio); higher = more soluble. Conditions: cell cycle stage: G1/S.
Data set [4] concerns HeLa Kyoto. Description: melting temperature (median over replicates), in situ; higher = more thermally stable.
[5] abbreviates: cell cycle stage: early G1 (4.5 h after nocodazole release).
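Throughout, for melting temperature (median over replicates), in situ: HeLa Kyoto cells synchronized by double thymidine or nocodazole block, proteins quantified by TMT10plex mass spectrometry, three independent biological replicates.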
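Throughout, for solubility change mitosis vs G1/S (difference of NP-40 vs SDS log2 ratios): synchronized HeLa Kyoto cells (double thymidine block for G1/S, nocodazole release for mitosis), protein amounts in NP-40 versus SDS lysates quantified by mass spectrometry, three biological replicates.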
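Throughout, for solubility in G1/S (NP-40 vs SDS abundance): HeLa Kyoto cells arrested at G1/S by double thymidine block, proteins quantified by TMT10plex mass spectrometry in mild NP-40 versus SDS extracts, three biological replicates.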
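Throughout, for thermal stability score vs G1/S (z-score of summed log2 fold changes over temperatures): synchronized HeLa Kyoto cells, proteins quantified by TMT10plex mass spectrometry, three biological replicates, mitosis taken 0.5 h after nocodazole release, G1/S directly after double thymidine block.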

As for “MPCGEDWLSHPLGIVQGFFAQNGVNPDWEKKVIEYFKEKLKENNAPKWVPSLNEVPLHYLKPNSFVKFRCMIQDMFDPEFYMGVYETVNQNTKAHVLHFGKYRDVAECGPQQELDLNSPRNTTLERQTFYCVPVPGESTWVKEAYVNANQARVSPSTSYTPSRHKRSYEDDDDMDLQPNKQKDQHAGARQAGSVGGLQWCGEPKRLETEASTGQQLNSLNLSSPFDLNFPLPGEKGPACLVKVYEDWDCFKVNDILELYGILSVDPVLSILNNDERDASALLDPMECTDTAEEQRVHSPPASLVPRIHVILAQKLQHINPLLPACLNKEESKTCKFVSSFMSELSPVRAELLGFLTHALLGDSLAAEYLILHLISTVYTRRDVLPLGKFTVNLSGCPRNSTFTEHLYRIIQHLVPASFRLQMTIENMNHLKFIPHKDYTANRLVSGLLQLPSNTSLVIDETLLEQGQLDTPGVHNVTALSNLITWQKVDYDFSYHQMEFPCNINVFITSEGRSLLPADCQIHLQPQLIPPNMEEYMNSLLSAVLPSVLNKFRIYLTLLRFLEYSISDEITKAVEDDFVEMRKNDPQSITADDLHQLLVVARCLSLSAGQTTLSRERWLRAKQLESLRRTRLQQQKCVNGNEL [MCMBP]”, the figures for the thermal stability score with HeLa Kyoto [1] (setting [5]) and in the data set with HeLa Kyoto [1] (cell cycle stage: mitosis) were 0.0238 and 2.25, respectively. For the same sequence, the “solubility change mitosis (log2)” value with HeLa Kyoto [2] was -0.11. Also, in the data set with HeLa Kyoto [3], the “solubility in G1/S (log2)” value was 0.324. Also, the melting temperature in the data set on HeLa Kyoto [4] (cell cycle stage: G1/S) turned out to be 49.2 °C; in the data set with HeLa Kyoto [4] (cell cycle stage: mitosis), 50.1 °C.

Turning to “MPDYLGADQRKTKEDEKDDKPIRALDEGDIALLKTYGQSTYSRQIKQVEDDIQQLLKKINELTGIKESDTGLAPPALWDLAADKQTLQSEQPLQVARCTKIINADSEDPKYIINVKQFAKFVVDLSDQVAPTDIEEGMRVGVDRNKYQIHIPLPPKIDPTVTMMQVEEKPDVTYSDVGGCKEQIEKLREVVETPLLHPERFVNLGIEPPKGVLLFGPPGTGKTLCARAVANRTDACFIRVIGSELVQKYVGEGARMVRELFEMARTKKACLIFFDEIDAIGGARFDDGAGGDNEVQRTMLELINQLDGFDPRGNIKVLMATNRPDTLDPALMRPGRLDRKIEFSLPDLEGRTHIFKIHARSMSVERDIRFELLARLCPNSTGAEIRSVCTEAGMFAIRARRKIATEKDFLEAVNKVIKSYAKFSATPRYMTYN [PSMC2]”, the results for the thermal stability score in the data set with HeLa Kyoto [1] (setting [5]) and with HeLa Kyoto [1] (cell cycle stage: mitosis) were 1.24 and 0.521, respectively. Besides, in the data set with HeLa Kyoto [2], the “solubility change mitosis (log2)” value was -0.143. Also, the “solubility in G1/S (log2)” value in the data set on HeLa Kyoto [3] was 0.358. The figures for the melting temperature in the data set on HeLa Kyoto [4] (cell cycle stage: G1/S) and in the data set on HeLa Kyoto [4] (cell cycle stage: mitosis) were 53.2 °C and 52 °C, respectively.

Take “MPEEMDKPLISLHLVDSDSSLAKVPDEAPKVGILGSGDFARSLATRLVGSGFKVVVGSRNPKRTARLFPSAAQVTFQEEAVSSPEVIFVAVFREHYSSLCSLSDQLAGKILVDVSNPTEQEHLQHRESNAEYLASLFPTCTVVKAFNVISAWTLQAGPRDGNRQVPICGDQPEAKRAVSEMALAMGFMPVDMGSLASAWEVEAMPLRLLPAWKVPTLLALGLFVCFYAYNFVRDVLQPYVQESQNKFFKLPVSVVNTTLPCVAYVLLSLVYLPGVLAAALQLRRGTKYQRFPDWLDHWLQHRKQIGLLSFFCAALHALYSFCLPLRRAHRYDLVNLAVKQVLANKSHLWVEEEVWRMEIYLSLGVLALGTLSLLAVTSLPSIANSLNWREFSFVQSSLGFVALVLSTLHTLTYGWTRAFEESRYKFYLPPTFTLTLLVPCVVILAKALFLLPCISRRLARIRRGWERESTIKFTLPTDHALAEKTSHV [STEAP3]”: the thermal stability score in the data set on HeLa Kyoto [1] (setting [5]) is -0.269; in the data set on HeLa Kyoto [1] (cell cycle stage: mitosis), -2.25. Moreover, the “solubility change mitosis (log2)” value with HeLa Kyoto [2] was -0.0119. Besides, in the data set on HeLa Kyoto [3], the “solubility in G1/S (log2)” value is -0.128. For the same sequence, the melting temperature was determined as 53.3 °C in the data set with HeLa Kyoto [4] (cell cycle stage: G1/S) and 52.4 °C in the data set on HeLa Kyoto [4] (cell cycle stage: mitosis).

For “MPELAVQKVVVHPLVLLSVVDHFNRIGKVGNQKRVVGVLLGSWQKKVLDVSNSFAVPFDEDDKDDSVWFLDHDYLENMYGMFKKVNARERIVGWYHTGPKLHKNDIAINELMKRYCPNSVLVIIDVKPKDLGLPTEAYISVEEVHDDGTPTSKTFEHVTSEIGAEEAEEVGVEHLLRDIKDTTVGTLSQRITNQVHGLKGLNSKLLDIRSYLEKVATGKLPINHQIIYQLQDVFNLLPDVSLQEFVKAFYLKTNDQMVVVYLASLIRSVVALHNLINNKIANRDAEKKEGQEKEESKKDRKEDKEKDKDKEKSDVKKEEKKEKK [PSMD7]”, the thermal stability score is -0.335 in the data set with HeLa Kyoto [1] (setting [5]) and -1.17 with HeLa Kyoto [1] (cell cycle stage: mitosis). For the same sequence, the “solubility change mitosis (log2)” value in the data set on HeLa Kyoto [2] was 0.00337. In the data set on HeLa Kyoto [3], the “solubility in G1/S (log2)” value is 0.121. Moreover, the melting temperature in the data set with HeLa Kyoto [4] (cell cycle stage: G1/S) is 53.9 °C; with HeLa Kyoto [4] (cell cycle stage: mitosis), 51.6 °C.

Turning to “MPFDFRRFDIYRKVPKDLTQPTYTGAIISICCCLFILFLFLSELTGFITTEVVNELYVDDPDKDSGGKIDVSLNISLPNLHCELVGLDIQDEMGRHEVGHIDNSMKIPLNNGAGCRFEGQFSINKVPGNFHVSTHSATAQPQNPDMTHVIHKLSFGDTLQVQNIHGAFNALGGADRLTSNPLASHDYILKIVPTVYEDKSGKQRYSYQYTVANKEYVAYSHTGRIIPAIWFRYDLSPITVKYTERRQPLYRFITTICAIIGGTFTVAGILDSCIFTASEAWKKIQLGKMH [ERGIC1]”, the thermal stability score in the data set with HeLa Kyoto [1] (setting [5]) was -0.418; in the data set on HeLa Kyoto [1] (cell cycle stage: mitosis), -0.585. Moreover, the “solubility change mitosis (log2)” value in the data set with HeLa Kyoto [2] is -0.178. Further, the “solubility in G1/S (log2)” value in the data set on HeLa Kyoto [3] stood at 0.18. In addition, the melting temperature in the data set with HeLa Kyoto [4] (cell cycle stage: G1/S) is 55.2 °C; in the data set on HeLa Kyoto [4] (cell cycle stage: mitosis), 55.6 °C.

Take “MPFLELDTNLPANRVPAGLEKRLCAAAASILGKPADRVNVTVRPGLAMALSGSTEPCAQLSISSIGVVGTAEDNRSHSAHFFEFLTKELALGQDRILIRFFPLESWQIGKIGTVMTFL [DDT]”: the thermal stability score was -2.25 in the data set with HeLa Kyoto [1] (setting [5]) and -2.27 with HeLa Kyoto [1] (cell cycle stage: mitosis). Also, the “solubility change mitosis (log2)” value in the data set on HeLa Kyoto [2] is -0.0844. Also, the “solubility in G1/S (log2)” value in the data set on HeLa Kyoto [3] came out at 0.57. The melting temperature was determined as 56.1 °C in the data set on HeLa Kyoto [4] (cell cycle stage: G1/S) and 57.4 °C with HeLa Kyoto [4] (cell cycle stage: mitosis).
